Reference: paper PMC9908967 (Nature Communications, 2023)

B1: 2554_01_D11 Fab (Fab, V domains shown)
VH: QVQLVQSGAEVKKPGSSVKVSCKASGGTFSSYAISWVRQAPGQGLEWMGGIIPIFGTANYAQKFQGRVTITADESTSTAYMELRSLRSDDTAVYYCARDNLGYCSGGSCYSDYYYYYMDVWGQGTLVTVSS
VL: NFMLTQPRSVSESPGKTVTISCTRSSGSIGSDYVHWYQQRPGSSPTTVIYEDNQRPSGVPDRFSGSIDSSSNSASLTISGLKTEDEADYYCQSYDRSNHEVVFGGGTKLTVL
notes: source: Expi293 cells, transient, purified (anti-CH1 resin)
B2: 2555_01_A01 Fab (Fab, V domains shown)
VH: B1 VH
VL: SYELTQPPSVSVAPGRTATITCEGDNIGQQIVHWYQQKPGQAPVAVISSDSDRPSGIPERFSGSNSGNTATLTISRVEAGDEADYYCQVWDSGSDHVVFGGGTKVTVL
notes: as for B1
B3: 2554_01_D11 IgG (antibody, V domains shown)
VH: B1 VH
VL: B1 VL
notes: also called IgG 2554_01_D11; copies: 2 + 2

Legend:
[1] = target: T1, α-bungarotoxin (Bungarus multicinctus, UniProt P60615); assay: SPR; conditions: both partners purified
T1 construct: source: bought: Latoxan SAS (L8115)

[2] = target: α-cobratoxin (Naja kaouthia (monocled cobra), UniProt P01391); assay: SPR; BIAcore T100; […]; 10 mM HEPES, 150 mM NaCl, 3 mM EDTA, 0.05% P20, pH 7.4; 40 µL/min; 1:1 Langmuir model, global fit; conditions: both partners purified
[3] = target: α-elapitoxin (Dendroaspis polylepis, UniProt P01396); assay: as above; conditions: both partners purified
[4] = target: T2, long neurotoxin 2 from O. hannah (Ophiophagus hannah, UniProt A8N285); assay: native MS; conditions: one partner purified
T2 construct: source: in SEC fractions of O. hannah whole venom (Latoxan L1357)

[5] = target: T3, long neurotoxin 2 from N. melanoleuca (Naja melanoleuca, UniProt P01388); assay: native MS; conditions: one partner purified
T3 construct: source: in SEC fractions of N. melanoleuca whole venom (Latoxan L1318)

[6] = target: T4, long neurotoxin from N. melanoleuca (Naja melanoleuca, UniProt P0DQQ2); assay: native MS; conditions: one partner purified
T4 construct: source: in SEC fractions of N. melanoleuca whole venom (Latoxan L1318)

[7] = target: long neurotoxin 4 from N. naja (Naja naja, UniProt P25672); assay: native MS; conditions: one partner purified

Binder | binding result [1] | Kd [2] [nM] | koff [2] [s⁻¹] | Kd [3] [nM] | koff [3] [s⁻¹] | binding result [4] | binding result [5] | binding result [6] | binding result [7]
B1 | binds | 1.78 | 0.000229 | 1.69 | 0.000177 |  |  |  | 
B2 |  | 8.41 | 0.0017 | 1.81 | 0.000181 |  |  |  | 
B3 |  |  |  |  |  | binds | binds | binds | binds
